T1: 14-3-3, P63104
T1 chain: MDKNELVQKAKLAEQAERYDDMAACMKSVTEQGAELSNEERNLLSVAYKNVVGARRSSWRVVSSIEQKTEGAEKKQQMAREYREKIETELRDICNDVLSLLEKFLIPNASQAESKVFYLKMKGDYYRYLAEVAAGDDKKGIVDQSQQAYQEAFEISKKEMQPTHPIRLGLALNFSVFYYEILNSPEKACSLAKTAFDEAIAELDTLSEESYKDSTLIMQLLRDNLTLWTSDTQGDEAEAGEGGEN


Experiments:
[1] = target: FLAG-AKAP13 T2467A (UniProt Q12802); test: co-IP; FLAG construct precipitated from transfected HEK293T lysate on anti-DYKDDDDK resin or DYKDDDDK Fab-Trap agarose, 1 hour at 4 °C; lysis buffer 10 mM HEPES KOH pH 7.5, 150 mM KCl, 0.01% IGEPAL with protease and phosphatase inhibitors; washed with PBS three times; immunoblot for 14-3-3
Sequence of UniProt Q12802 (Q12802 whole entry T2467A): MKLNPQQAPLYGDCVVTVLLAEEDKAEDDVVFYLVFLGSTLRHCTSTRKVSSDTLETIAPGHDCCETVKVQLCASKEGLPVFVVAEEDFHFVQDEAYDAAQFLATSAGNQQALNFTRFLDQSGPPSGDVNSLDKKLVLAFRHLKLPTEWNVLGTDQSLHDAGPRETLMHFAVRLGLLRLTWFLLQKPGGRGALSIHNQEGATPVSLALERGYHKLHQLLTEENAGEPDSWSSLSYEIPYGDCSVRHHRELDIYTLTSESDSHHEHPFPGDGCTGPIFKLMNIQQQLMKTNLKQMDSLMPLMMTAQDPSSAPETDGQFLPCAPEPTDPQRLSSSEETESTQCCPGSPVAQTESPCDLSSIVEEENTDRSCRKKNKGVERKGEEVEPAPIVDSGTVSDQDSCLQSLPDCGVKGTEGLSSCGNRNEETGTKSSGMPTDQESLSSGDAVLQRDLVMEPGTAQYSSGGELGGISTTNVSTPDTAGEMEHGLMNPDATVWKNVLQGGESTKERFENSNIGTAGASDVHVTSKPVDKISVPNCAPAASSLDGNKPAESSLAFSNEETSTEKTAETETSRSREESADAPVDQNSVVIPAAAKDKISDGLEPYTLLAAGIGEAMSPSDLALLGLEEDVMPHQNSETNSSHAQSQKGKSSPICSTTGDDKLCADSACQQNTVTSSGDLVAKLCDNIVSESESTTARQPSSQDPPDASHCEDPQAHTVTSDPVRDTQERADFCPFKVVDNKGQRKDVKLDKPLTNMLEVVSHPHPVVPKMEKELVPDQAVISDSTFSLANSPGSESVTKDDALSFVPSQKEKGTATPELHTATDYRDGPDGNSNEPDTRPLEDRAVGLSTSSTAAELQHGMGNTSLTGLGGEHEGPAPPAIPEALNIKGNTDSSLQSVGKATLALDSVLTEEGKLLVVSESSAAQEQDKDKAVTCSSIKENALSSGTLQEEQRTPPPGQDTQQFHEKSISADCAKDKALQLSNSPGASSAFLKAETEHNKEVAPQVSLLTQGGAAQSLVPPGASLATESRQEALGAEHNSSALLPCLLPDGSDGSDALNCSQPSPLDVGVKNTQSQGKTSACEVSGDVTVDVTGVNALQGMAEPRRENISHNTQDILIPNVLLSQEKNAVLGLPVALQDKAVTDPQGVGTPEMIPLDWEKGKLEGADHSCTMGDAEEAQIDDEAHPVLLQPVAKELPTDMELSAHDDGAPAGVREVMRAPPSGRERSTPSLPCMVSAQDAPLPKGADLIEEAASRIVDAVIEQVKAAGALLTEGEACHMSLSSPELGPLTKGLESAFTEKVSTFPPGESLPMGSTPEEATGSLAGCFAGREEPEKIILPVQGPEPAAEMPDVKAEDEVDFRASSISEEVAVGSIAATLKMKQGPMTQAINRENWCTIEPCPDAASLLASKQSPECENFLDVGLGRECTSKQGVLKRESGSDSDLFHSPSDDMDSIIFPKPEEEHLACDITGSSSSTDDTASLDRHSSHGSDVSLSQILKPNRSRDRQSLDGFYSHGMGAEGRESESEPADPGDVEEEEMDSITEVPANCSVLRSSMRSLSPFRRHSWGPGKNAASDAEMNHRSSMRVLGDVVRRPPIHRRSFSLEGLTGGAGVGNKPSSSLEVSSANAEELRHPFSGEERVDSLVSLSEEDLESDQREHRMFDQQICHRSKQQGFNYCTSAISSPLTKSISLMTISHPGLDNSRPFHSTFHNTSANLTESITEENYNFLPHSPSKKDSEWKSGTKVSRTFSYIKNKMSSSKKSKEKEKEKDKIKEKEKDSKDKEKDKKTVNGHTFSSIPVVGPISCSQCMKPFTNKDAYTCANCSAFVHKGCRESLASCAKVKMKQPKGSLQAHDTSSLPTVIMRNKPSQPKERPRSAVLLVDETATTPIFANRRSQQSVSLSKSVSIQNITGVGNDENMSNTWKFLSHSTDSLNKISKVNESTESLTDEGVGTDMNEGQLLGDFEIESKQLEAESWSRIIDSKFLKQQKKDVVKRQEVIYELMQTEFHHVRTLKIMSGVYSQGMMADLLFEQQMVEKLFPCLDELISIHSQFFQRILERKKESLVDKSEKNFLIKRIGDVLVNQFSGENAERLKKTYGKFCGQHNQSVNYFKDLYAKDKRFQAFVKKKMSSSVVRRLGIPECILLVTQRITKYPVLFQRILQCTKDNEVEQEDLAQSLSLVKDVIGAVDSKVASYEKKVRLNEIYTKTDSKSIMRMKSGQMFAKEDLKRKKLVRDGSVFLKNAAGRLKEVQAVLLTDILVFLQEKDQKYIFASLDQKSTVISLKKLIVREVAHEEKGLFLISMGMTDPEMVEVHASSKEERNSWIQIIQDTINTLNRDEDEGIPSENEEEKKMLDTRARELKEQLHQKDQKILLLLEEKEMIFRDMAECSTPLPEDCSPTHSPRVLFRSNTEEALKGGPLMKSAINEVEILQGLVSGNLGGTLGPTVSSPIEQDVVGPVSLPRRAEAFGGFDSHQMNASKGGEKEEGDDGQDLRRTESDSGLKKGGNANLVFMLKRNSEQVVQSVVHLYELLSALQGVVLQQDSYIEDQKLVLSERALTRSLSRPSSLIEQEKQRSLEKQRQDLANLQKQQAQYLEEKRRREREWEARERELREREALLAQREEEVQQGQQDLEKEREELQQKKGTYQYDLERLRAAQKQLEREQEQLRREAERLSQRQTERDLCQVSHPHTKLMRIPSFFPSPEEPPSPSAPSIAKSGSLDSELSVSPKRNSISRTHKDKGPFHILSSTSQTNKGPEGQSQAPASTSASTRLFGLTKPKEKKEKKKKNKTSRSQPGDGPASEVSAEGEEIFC

[2] = target: T1, 14-3-3, P63104; test: co-immunoprecipitation (IP: FLAG) with immunoblot quantification; conditions: chain shown with the change; HEK293T cells; 3 biological replicates; parent: est. 1.0; read off a plot

Row | Molecule | loss of co-precipitated 14-3-3 against wild-type AKAP13 [1] [%] | ratio to parent [2]
1 | FLAG-TNK1, Q13470 S502A (protein) MLPEAGSLWLLKLLRDIQLAQFYWPILEELNVTRPEHFDFVKPEDLDGIGMGRPAQRRLSEALKRLRSGPKSKNWVYKILGGFAPEHKEPTLPSDSPRHLPEPEGGLKCLIPEGAVCRGELLGSGCFGVVHRGLWTLPSGKSVPVAVKSLRVGPEGPMGTELGDFLREVSVMMNLEHPHVLRLHGLVLGQPLQMVMELAPLGSLHARLTAPAPTPPLLVALLCLFLRQLAGAMAYLGARGLVHRDLATRNLLLASPRTIKVADFGLVRPLGGARGRYVMGGPRPIPYAWCAPESLRHGAFSSASDVWMFGVTLWEMFSGGEEPWAGVPPYLILQRLEDRARLPRPPLCSRALYSLALRCWAPHPADRPSFSHLEGLLQEAGPSEACCVRDVTEPGALRMETGDPITVIEGSSSFHSPDSTIWKGQNGRTFKVGSFPASAVTLADAGGLPATRPVHRGTPARGDQHPGSIDGDRKKANLWDAPPARGQRRNMPLERMKGISRALESVLSLGPRPTGGGSSPPEIRQARAVPQGPPGLPPRPPLSSSSPQPSQPSRERLPWPKRKPPHNHPMGMPGARKAAALSGGLLSDPELQRKIMEVELSVHGVTHQECQTALGATGGDVVSAIRNLKVDQLFHLSSRSRADCWRILEHYQWDLSAASRYVLARP | – | 0.14
2 | FLAG-TNK1, Q13470 S68A (protein) MLPEAGSLWLLKLLRDIQLAQFYWPILEELNVTRPEHFDFVKPEDLDGIGMGRPAQRRLSEALKRLRAGPKSKNWVYKILGGFAPEHKEPTLPSDSPRHLPEPEGGLKCLIPEGAVCRGELLGSGCFGVVHRGLWTLPSGKSVPVAVKSLRVGPEGPMGTELGDFLREVSVMMNLEHPHVLRLHGLVLGQPLQMVMELAPLGSLHARLTAPAPTPPLLVALLCLFLRQLAGAMAYLGARGLVHRDLATRNLLLASPRTIKVADFGLVRPLGGARGRYVMGGPRPIPYAWCAPESLRHGAFSSASDVWMFGVTLWEMFSGGEEPWAGVPPYLILQRLEDRARLPRPPLCSRALYSLALRCWAPHPADRPSFSHLEGLLQEAGPSEACCVRDVTEPGALRMETGDPITVIEGSSSFHSPDSTIWKGQNGRTFKVGSFPASAVTLADAGGLPATRPVHRGTPARGDQHPGSIDGDRKKANLWDAPPARGQRRNMPLERMKGISRSLESVLSLGPRPTGGGSSPPEIRQARAVPQGPPGLPPRPPLSSSSPQPSQPSRERLPWPKRKPPHNHPMGMPGARKAAALSGGLLSDPELQRKIMEVELSVHGVTHQECQTALGATGGDVVSAIRNLKVDQLFHLSSRSRADCWRILEHYQWDLSAASRYVLARP | – | 0.8
3 | FLAG-TNK1, Q13470 T392A (protein) MLPEAGSLWLLKLLRDIQLAQFYWPILEELNVTRPEHFDFVKPEDLDGIGMGRPAQRRLSEALKRLRSGPKSKNWVYKILGGFAPEHKEPTLPSDSPRHLPEPEGGLKCLIPEGAVCRGELLGSGCFGVVHRGLWTLPSGKSVPVAVKSLRVGPEGPMGTELGDFLREVSVMMNLEHPHVLRLHGLVLGQPLQMVMELAPLGSLHARLTAPAPTPPLLVALLCLFLRQLAGAMAYLGARGLVHRDLATRNLLLASPRTIKVADFGLVRPLGGARGRYVMGGPRPIPYAWCAPESLRHGAFSSASDVWMFGVTLWEMFSGGEEPWAGVPPYLILQRLEDRARLPRPPLCSRALYSLALRCWAPHPADRPSFSHLEGLLQEAGPSEACCVRDVAEPGALRMETGDPITVIEGSSSFHSPDSTIWKGQNGRTFKVGSFPASAVTLADAGGLPATRPVHRGTPARGDQHPGSIDGDRKKANLWDAPPARGQRRNMPLERMKGISRSLESVLSLGPRPTGGGSSPPEIRQARAVPQGPPGLPPRPPLSSSSPQPSQPSRERLPWPKRKPPHNHPMGMPGARKAAALSGGLLSDPELQRKIMEVELSVHGVTHQECQTALGATGGDVVSAIRNLKVDQLFHLSSRSRADCWRILEHYQWDLSAASRYVLARP | – | 0.67
4 | FLAG-TNK1, Q13470 T91A (protein) MLPEAGSLWLLKLLRDIQLAQFYWPILEELNVTRPEHFDFVKPEDLDGIGMGRPAQRRLSEALKRLRSGPKSKNWVYKILGGFAPEHKEPALPSDSPRHLPEPEGGLKCLIPEGAVCRGELLGSGCFGVVHRGLWTLPSGKSVPVAVKSLRVGPEGPMGTELGDFLREVSVMMNLEHPHVLRLHGLVLGQPLQMVMELAPLGSLHARLTAPAPTPPLLVALLCLFLRQLAGAMAYLGARGLVHRDLATRNLLLASPRTIKVADFGLVRPLGGARGRYVMGGPRPIPYAWCAPESLRHGAFSSASDVWMFGVTLWEMFSGGEEPWAGVPPYLILQRLEDRARLPRPPLCSRALYSLALRCWAPHPADRPSFSHLEGLLQEAGPSEACCVRDVTEPGALRMETGDPITVIEGSSSFHSPDSTIWKGQNGRTFKVGSFPASAVTLADAGGLPATRPVHRGTPARGDQHPGSIDGDRKKANLWDAPPARGQRRNMPLERMKGISRSLESVLSLGPRPTGGGSSPPEIRQARAVPQGPPGLPPRPPLSSSSPQPSQPSRERLPWPKRKPPHNHPMGMPGARKAAALSGGLLSDPELQRKIMEVELSVHGVTHQECQTALGATGGDVVSAIRNLKVDQLFHLSSRSRADCWRILEHYQWDLSAASRYVLARP | – | 0.84

The remaining lines, values ahead:

Row | loss of co-precipitated 14-3-3 against wild-type AKAP13 [1] [%] | ratio to parent [2] | Molecule
5 | > 50 | – | 14-3-3 (from UniProt P63104 1-245) (natural protein)
6 | – | 0.88 | FLAG-TNK1, Q13470 S434A (protein) MLPEAGSLWLLKLLRDIQLAQFYWPILEELNVTRPEHFDFVKPEDLDGIGMGRPAQRRLSEALKRLRSGPKSKNWVYKILGGFAPEHKEPTLPSDSPRHLPEPEGGLKCLIPEGAVCRGELLGSGCFGVVHRGLWTLPSGKSVPVAVKSLRVGPEGPMGTELGDFLREVSVMMNLEHPHVLRLHGLVLGQPLQMVMELAPLGSLHARLTAPAPTPPLLVALLCLFLRQLAGAMAYLGARGLVHRDLATRNLLLASPRTIKVADFGLVRPLGGARGRYVMGGPRPIPYAWCAPESLRHGAFSSASDVWMFGVTLWEMFSGGEEPWAGVPPYLILQRLEDRARLPRPPLCSRALYSLALRCWAPHPADRPSFSHLEGLLQEAGPSEACCVRDVTEPGALRMETGDPITVIEGSSSFHSPDSTIWKGQNGRTFKVGAFPASAVTLADAGGLPATRPVHRGTPARGDQHPGSIDGDRKKANLWDAPPARGQRRNMPLERMKGISRSLESVLSLGPRPTGGGSSPPEIRQARAVPQGPPGLPPRPPLSSSSPQPSQPSRERLPWPKRKPPHNHPMGMPGARKAAALSGGLLSDPELQRKIMEVELSVHGVTHQECQTALGATGGDVVSAIRNLKVDQLFHLSSRSRADCWRILEHYQWDLSAASRYVLARP

Source: paper PMC10099770
